# PMC6065011
# What was measured:
# [1] = target: HMGB1, disulfide form (recombinant) (UniProt P09429); experiment: SPR
# [2] = target: Siglec-10-Fc (soluble, recombinant) (UniProt Q96LC7); experiment: SPR
# Sequence of UniProt Q96LC7 (Q96LC7 17-550): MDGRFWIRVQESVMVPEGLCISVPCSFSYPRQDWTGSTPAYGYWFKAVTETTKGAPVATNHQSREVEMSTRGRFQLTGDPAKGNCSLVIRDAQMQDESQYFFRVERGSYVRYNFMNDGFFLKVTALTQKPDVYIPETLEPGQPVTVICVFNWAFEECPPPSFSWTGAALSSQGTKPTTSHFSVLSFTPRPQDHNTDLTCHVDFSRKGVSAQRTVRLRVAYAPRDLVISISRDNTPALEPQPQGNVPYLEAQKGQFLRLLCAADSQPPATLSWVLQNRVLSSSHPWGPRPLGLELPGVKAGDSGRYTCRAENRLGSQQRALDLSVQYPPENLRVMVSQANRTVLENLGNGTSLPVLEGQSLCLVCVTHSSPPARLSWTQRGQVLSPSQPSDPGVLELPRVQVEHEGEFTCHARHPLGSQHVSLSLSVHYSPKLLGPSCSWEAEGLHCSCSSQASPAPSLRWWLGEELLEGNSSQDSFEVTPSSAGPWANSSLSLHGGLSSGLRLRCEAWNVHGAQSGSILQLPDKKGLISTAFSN
# Sequence of UniProt P09429 (P09429 whole entry): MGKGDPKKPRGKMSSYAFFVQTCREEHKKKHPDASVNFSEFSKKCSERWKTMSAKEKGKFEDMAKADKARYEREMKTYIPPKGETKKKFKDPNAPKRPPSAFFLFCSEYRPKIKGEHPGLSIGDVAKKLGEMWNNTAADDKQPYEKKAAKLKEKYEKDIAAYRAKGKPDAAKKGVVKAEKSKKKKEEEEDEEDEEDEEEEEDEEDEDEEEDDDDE
substance,measurement,setting,value
"CD52-Fc (soluble CD52, recombinant) (from UniProt P31358 25-36) (Fc fusion)",Kd,[1],130 nM
same,Kd,[2],565 nM
